Consider 2 molecules from patent publication US6977175 (MIT, dated 2005).

B1: LIN-15A protein (other, C. elegans, UniProt Q27365 1-719, looked up)
chain: MLAPAAPAKDVVSADEKEEIIAKRKFRMKNVDAMRMSSLANDRMAFNKKCNALAMKFVKSAGIGTDALQLTCFQELVRHFNPIAAVVVGVKREPNSNVQAEKKTIPKVKTIQTPTQSMESVRLLQEKKASATEEQSAESASIMKHFANTIPNSTPTQSVKDVLTAAASKGQFKSSAEIFSHFPSEPSPSKPRATREGSQPSDYTYCTYLTPCILCEKALLMRESIAMTDNEAVKVLMAAVMSGHFRMATAEKAIRHERLRMCYDHVDFVYEMMCDAFEAKTESEINEMPPDRLMRGHDIYRALKRVGDLHKGKVTSNTPLYSFKNSIKSYYRNHVPRMVNGSLSKPSPKPFSELVALLQSVPPSTNLNELLNHNLSLSDADKQELIQLINGKDNRFTSRRRKIEDILDNKFAAAAAKAYRDHSEDAPSEPYIPNQSEMQNTVERRKRKLHSPEQDDAGSSSISWNAKKTKTPIDYVHLATRVLEGHSIADEALLHKSKVSYARNAFGEKPSSPTPPSAPLKFCVVNGKKYLRFENGTGPPKVVVQGNVVLRTNTLKDALTTAPRAQNQPSTSTDSSSSSEMEGIRQSFGAPQKEEEEEELVPTLLQNKPTHVESSSPVEKKPPTKTNVEKPAVRLGRMLTTAFGSMSYRTRKSVENKTDLLNQPTSASPRRMIKVVRNRNPHLAKQVAAAPSEPKHIPPTHMEKKPEELLMDPKPEPIF
notes: Tested in a yeast two-hybrid assay; The fusion partners and construct limits are not described

In assay [1] the target is T1, LIN-15B protein (C. elegans, UniProt Q27395 1-1440, limits assumed).
T1 construct: Tested in a yeast two-hybrid assay; The fusion partners and construct limits are not described
T1 sequence (looked up): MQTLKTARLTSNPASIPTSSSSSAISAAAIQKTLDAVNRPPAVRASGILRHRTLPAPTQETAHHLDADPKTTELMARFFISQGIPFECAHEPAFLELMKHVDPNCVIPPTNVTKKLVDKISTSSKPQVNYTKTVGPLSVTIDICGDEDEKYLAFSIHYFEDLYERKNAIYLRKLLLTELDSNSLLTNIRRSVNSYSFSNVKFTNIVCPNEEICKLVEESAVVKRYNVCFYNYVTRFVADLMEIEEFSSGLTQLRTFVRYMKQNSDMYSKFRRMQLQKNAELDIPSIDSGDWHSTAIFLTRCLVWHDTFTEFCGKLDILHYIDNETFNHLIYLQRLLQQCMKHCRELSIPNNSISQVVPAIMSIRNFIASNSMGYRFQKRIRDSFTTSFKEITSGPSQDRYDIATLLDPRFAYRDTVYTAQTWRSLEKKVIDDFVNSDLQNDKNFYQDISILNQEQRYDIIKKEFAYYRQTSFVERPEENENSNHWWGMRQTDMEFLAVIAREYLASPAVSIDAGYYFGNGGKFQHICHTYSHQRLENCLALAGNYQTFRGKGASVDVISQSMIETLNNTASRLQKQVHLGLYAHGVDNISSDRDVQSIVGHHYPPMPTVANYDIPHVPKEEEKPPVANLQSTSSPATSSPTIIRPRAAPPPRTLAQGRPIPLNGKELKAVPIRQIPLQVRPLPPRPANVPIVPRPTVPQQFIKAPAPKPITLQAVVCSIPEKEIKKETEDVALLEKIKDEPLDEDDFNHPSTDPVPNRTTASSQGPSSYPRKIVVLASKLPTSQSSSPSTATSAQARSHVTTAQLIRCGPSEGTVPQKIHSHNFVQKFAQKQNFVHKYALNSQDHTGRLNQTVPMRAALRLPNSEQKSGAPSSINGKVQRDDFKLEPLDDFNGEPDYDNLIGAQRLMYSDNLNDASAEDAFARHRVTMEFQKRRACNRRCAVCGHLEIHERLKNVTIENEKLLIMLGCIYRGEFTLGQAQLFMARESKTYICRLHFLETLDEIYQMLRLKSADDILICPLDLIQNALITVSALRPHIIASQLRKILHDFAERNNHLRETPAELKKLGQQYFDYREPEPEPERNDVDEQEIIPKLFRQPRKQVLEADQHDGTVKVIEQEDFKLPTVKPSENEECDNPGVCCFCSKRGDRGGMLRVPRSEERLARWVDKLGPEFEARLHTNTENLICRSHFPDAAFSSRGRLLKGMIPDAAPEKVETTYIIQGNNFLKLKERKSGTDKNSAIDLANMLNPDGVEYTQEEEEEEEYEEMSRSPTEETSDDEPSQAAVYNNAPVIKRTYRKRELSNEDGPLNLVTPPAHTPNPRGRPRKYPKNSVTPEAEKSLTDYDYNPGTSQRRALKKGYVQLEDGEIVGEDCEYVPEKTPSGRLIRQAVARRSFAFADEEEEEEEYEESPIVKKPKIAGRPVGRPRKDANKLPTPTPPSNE
The assay is described as follows: yeast two-hybrid.

For assay [2], the target named is B1. The assay is described as follows: yeast two-hybrid.

On to B1, for which the binding result in assay [1] is given as “no binding”.

B2: LIN-9 protein (other, C. elegans, UniProt P30630 1-644, looked up)
chain: MSSAVRSPRKKAASDTSDPDRTSSPYSLRETSKVPSRYRNEELYLSPSRSIKRTGSPKKSPAKRLNGGRDSPSVNSLTRNSSLTMLAKAALDYESSSCALEYIFQPKEERRPPRRALALSPPPAPSNDLLAKDLEMIEMHQNLVAGLDDLDNPANMTNEAVEHRDTQSFFNMFSTDQERSAMMKQFKTYKNQTSEDVSTFMRANIKKLYNLLRYKKARQWVMCEFFYSAIDEQIFKEENEFATIIRESFPNLKNWNLTRIEWRSIRKLLGKPRRCSKVFFEEERMYLEEKRMKIRSVYEGSYLNDPSIDLKDLPAKLPRPMVVGNRVFARIRNPYDGIYSGIIDAVIPKGFRIIFDKPDIPPTLVSDTEILLDGKLDLLSIAYFIEQANSKLPSGVRPFVAAVRDSSHPHLVRDVLVSRKIERSGGPLMGPNDERLNGKNAEMVGNFPLKFLVNLVKLTKLIDIKKGLIRQLNELNADAEIQNMTSDKYSKAFQEKYAKTIIDLEHVNQNIDINMNGIQDHHMYFSSNDISTSNMKPEAVRQMCSQQAGRFVEHCNQGLNVENVHALTLIQSLTAVLLQVRTMGTQKISAVDLQSLGDAISEIRTAIHPRNVAFFQDYVEVHMKQFHTIMLESGALAGTVSNRK
notes: as for B1
For B2, the binding result in assay [1] and in assay [2] was “no binding” throughout.
